Measured values taken from patent publication US20230152323A1 (NORDIC BIOSCIENCE A S, published 2023).
No end group written: not given here.

How the values were obtained:
[1] = biological target: T1, Von Willebrand factor (VWF) peptide LLARDCQDHS (human); experiment: competitive SPARC-M ELISA, peptide as competitor
T1 construct: A peptide was tested, not the whole protein
T1 peptide: LLARDCQDHS
Method: (§1) The specificity of the antibody was tested by including an elongated standard peptide with an additional amino acid added to the N-terminal of the target peptide sequence ([…]; SEQ ID NO: 2), a truncated standard peptide with a removal of the first N-terminal amino acid ([…]; SEQ ID NO: 3) as well as a non-sense standard peptide ([…]; SEQ ID NO: 4) and a non-sense biotinylated coating peptide ([…]-biotin; SEQ ID NO: 5) in the assay validation. Four peptides (Von Willebrand factor, glucagon, SPARC-like protein 1 and ADAMTS15) with one amino acid mismatch compared to the first six amino acids in the target sequence were also included to further test the antibody specificity. The immunogenic peptide ([…]-GGC-KLH; SEQ ID NO: 6) was generated by covalently cross-linking the standard peptide to Keyhole Limpet Hemocyanin (KLH) carrier protein using Succinimidyl 4-(N-maleimidomethyl)cyclohexane-1-carboxylate, SMCC (Thermo Scientific, Waltham, MA, USA, cat.no. 22336). Glycine and cysteine residues were added at the C-terminal end to ensure right linking of the carrier protein.
(§2) A 96-well streptavidin-coated microtiter plate was coated with 1.1 ng/mL biotinylated coating peptide dissolved in assay buffer (50 mM Tris-BTB, 4 g/L NaCl, pH 8.0) and incubated for 30 min. at 20° C. in darkness shaking (300 rpm). Twenty µL standard peptide or pre-diluted serum (1:4) were added to appropriate wells, followed by the addition of 100 µL monoclonal antibody dissolved in assay buffer to a concentration of 14 ng/mL to each well and incubated 1 hour at 20° C. in darkness shaking (300 rpm). One hundred µL of goat anti-mouse POD-conjugated IgG antibody (Thermo Scientific, Waltham, MA, USA, cat. #31437) diluted 1:6000 in assay buffer was added to each well and incubated 1 hour at 20° C. in darkness shaking. All incubation steps were followed by five washes in washing buffer (20 mM Tris, 50 mM NaCl, pH 7.2). Finally, 100 µL tetramethylbenzidine (TMB) (cat. 438OH, Kem-En-Tec Diagnostics, Denmark) was added to each well and the plate was incubated for 15 minutes at 20° C. in darkness shaking. The enzymatic reaction was stopped by adding 0.18 M H₂SO₄ and absorbance was measured at 450 nm with 650 nm as reference. A calibration curve was plotted using a 4-parameter logistic curve fit. Data were analyzed using the SoftMax Pro v.6.3 software.

[2] = biological target: T2, Glucagon (GCG) peptide LAARDFINWL (human); experiment: competitive SPARC-M ELISA, peptide as competitor
T2 construct: A peptide was tested, not the whole protein
T2 peptide: LAARDFINWL
Method: as §1, §2

[3] = biological target: T3, ADAMTS15 (A15) peptide LLARDQCNLH (human); experiment: competitive SPARC-M ELISA, peptide as competitor
T3 construct: A peptide was tested, not the whole protein
T3 peptide: LLARDQCNLH
Method: as §1, §2

[4] = biological target: T4, SPARC-like protein 1 (SLP1) peptide LLLRDFKKNY (human); experiment: competitive SPARC-M ELISA, peptide as competitor
T4 construct: A peptide was tested, not the whole protein
T4 peptide: LLLRDFKKNY
Method: as §1, §2

[5] = biological target: T5, Non-sense coating peptide VPKDLPPDTT-biotin; experiment: ELISA, peptide coated on a streptavidin plate
T5 construct: Held on streptavidin-coated plates; also called non-sense biotinylated coating peptide
T5 peptide: VPKDLPPDTT-biotin
Method: as §1, with “The target sequence was used as the standard peptide ([…]; SEQ ID NO: 1). A biotinylated peptide ([…]-K-biotin; SEQ ID NO:7) was included as a coating peptide with addition of a lysine residue to the C-terminal end to ensure biotin linking. The specificity” for “The specificity”, “carrier protein. […]” for “carrier protein.”

[6] = biological target: T6, Recombinant human SPARC, full-length, uncleaved (human, UniProt P09486 18-303); experiment: competitive SPARC-M ELISA on recombinant SPARC incubated without protease
T6 construct: Incubated in MMP buffer without protease and then measured in the SPARC-M ELISA; also called recombinant full-length SPARC; osteonectin
T6 sequence (looked up): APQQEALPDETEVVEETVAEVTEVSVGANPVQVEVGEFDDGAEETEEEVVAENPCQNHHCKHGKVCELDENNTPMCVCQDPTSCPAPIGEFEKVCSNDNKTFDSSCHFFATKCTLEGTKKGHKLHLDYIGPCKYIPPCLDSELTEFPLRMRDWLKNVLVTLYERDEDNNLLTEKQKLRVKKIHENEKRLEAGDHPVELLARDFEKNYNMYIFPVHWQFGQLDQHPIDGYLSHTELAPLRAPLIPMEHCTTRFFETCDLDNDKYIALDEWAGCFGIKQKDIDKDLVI

[7] = biological target: T7, Standard peptide LLARDFEKNY (human); experiment: preliminary competitive ELISA, hybridoma supernatant, 10 ng/mL biotinylated coating peptide
T7 construct: Synthetic peptide from Genscript with a free N-terminus; also called calibration peptide
T7 peptide: LLARDFEKNY
Method: The reactivity of the monoclonal antibody was evaluated by displacement using human serum samples and the standard peptide ([…]; SEQ ID NO: 1) in a preliminary ELISA using 10 ng/mL biotinylated coating peptide on streptavidin-coated microtiter plates (Roche, Basel, Switzerland, cat. #11940279) and the supernatant from the antibody producing monoclonal hybridoma cells. The clone with the best reactivity towards the standard peptide was purified using protein-G-columns according to the manufacturer’s instructions (GE Healthcare Life Sciences, Little Chalfont, UK, cat. #17-0404-01 ).

binding result [1]: no binding | binding result [2]: no binding | binding result [3]: no binding | binding result [4]: no binding | binding result [5]: no binding | binding result [6]: no binding | binding result [7]: binds
B1: SPARC-M monoclonal antibody (antibody, mouse IgG1, kappa, V domains shown)
VH: EVKLVESGGGLVKPGGSLKLSCAASGFTFSRNAMSWVRQTPEKRLEWVASISTSDNTYYPDSVKGRFTISKDNARNILYLQMSSLRSEDTAMYYCASGFDVGAYWGQGTLVTVSA
VL: DVLMTQTPLSLPVSLGDQASISCRSSQSIVHSNGNTYLEWYLQKPGQSPKLLIYKVSNRFSGVPDRFSGSGSGTDFTLKISRVDTEDLGVYYCFQGSHVPLTFGAGTKLELKR
notes: also called the antibody; the selected antibody
